The values that follow come from publication PMC10758017.

The labels stand for the following.
T1: TGFβRI/TGFβRII receptor complex (mouse (endogenous in MFB-F11)) (UniProt Q64729)
T1 sequence 1: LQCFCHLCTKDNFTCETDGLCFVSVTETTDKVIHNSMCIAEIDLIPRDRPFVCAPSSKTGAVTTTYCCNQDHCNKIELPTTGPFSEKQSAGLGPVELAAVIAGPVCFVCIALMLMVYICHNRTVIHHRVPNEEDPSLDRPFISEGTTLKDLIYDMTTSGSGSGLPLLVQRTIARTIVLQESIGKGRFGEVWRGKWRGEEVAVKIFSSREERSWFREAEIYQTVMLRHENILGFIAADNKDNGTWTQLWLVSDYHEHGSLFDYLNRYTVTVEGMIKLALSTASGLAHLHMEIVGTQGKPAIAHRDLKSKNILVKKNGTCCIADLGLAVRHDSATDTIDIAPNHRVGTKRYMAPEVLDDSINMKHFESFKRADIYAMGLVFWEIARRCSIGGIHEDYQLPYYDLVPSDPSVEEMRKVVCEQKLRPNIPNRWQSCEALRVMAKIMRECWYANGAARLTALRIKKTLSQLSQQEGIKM
T1 sequence 2: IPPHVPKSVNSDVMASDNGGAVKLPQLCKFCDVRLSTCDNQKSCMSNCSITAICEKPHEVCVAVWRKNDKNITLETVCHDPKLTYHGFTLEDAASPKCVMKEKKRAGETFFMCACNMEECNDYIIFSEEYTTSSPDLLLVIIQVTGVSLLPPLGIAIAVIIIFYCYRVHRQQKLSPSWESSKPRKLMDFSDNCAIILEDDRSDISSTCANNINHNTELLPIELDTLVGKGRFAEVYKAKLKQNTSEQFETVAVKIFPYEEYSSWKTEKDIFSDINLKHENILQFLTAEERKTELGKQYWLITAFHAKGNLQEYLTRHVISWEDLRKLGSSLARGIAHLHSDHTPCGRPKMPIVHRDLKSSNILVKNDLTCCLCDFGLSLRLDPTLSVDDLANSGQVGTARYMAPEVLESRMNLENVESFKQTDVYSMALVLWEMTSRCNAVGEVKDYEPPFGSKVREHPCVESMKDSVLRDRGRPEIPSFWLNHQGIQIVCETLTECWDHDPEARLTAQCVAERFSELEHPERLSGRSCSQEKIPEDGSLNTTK

One assay deals with T1, TGFβRI/TGFβRII receptor complex (mouse (endogenous in MFB-F11)).
For LDAAYCFRN [peptide inhibitor 1.2 …], the Smad2 mRNA, ddCt (qRT-PCR), IP at 50 μM against the reference inhibitor SB-525334 at 50 nM is -12.2.

Turning to AYCFRNVQD [peptide inhibitor 1.5 …], the Smad2 mRNA, ddCt (qRT-PCR), IP at 50 μM against the reference inhibitor SB-525334 at 50 nM was -2.4.

DAAYCFRNV [peptide inhibitor 1.3 …] had a Smad2 mRNA, ddCt (qRT-PCR), IP at 50 μM against the reference inhibitor SB-525334 at 50 nM of -10.5.

A further assay shares this target. This is another data set of the same source.
LDAAYCFRN [peptide inhibitor 1.2 …] registered a Smad3 mRNA, ddCt (qRT-PCR), IP at 50 μM against the reference inhibitor SB-525334 at 50 nM of -11.9.

In the case of AYCFRNVQD [peptide inhibitor 1.5 …], the Smad3 mRNA, ddCt (qRT-PCR), IP at 50 μM against the reference inhibitor SB-525334 at 50 nM is 0.2.

Turning to DAAYCFRNV [peptide inhibitor 1.3 …], the Smad3 mRNA, ddCt (qRT-PCR), IP at 50 μM against the reference inhibitor SB-525334 at 50 nM was -9.5.

A further assay has the same target. This is another data set of the same source.
LDAAYCFRN [peptide inhibitor 1.2 …]: the Smad4 mRNA, ddCt (qRT-PCR), IP at 50 μM against the reference inhibitor SB-525334 at 50 nM was -11.3.

AYCFRNVQD [peptide inhibitor 1.5 …]: the Smad4 mRNA, ddCt (qRT-PCR), IP at 50 μM against the reference inhibitor SB-525334 at 50 nM is 0.9.

DAAYCFRNV [peptide inhibitor 1.3 …] had a Smad4 mRNA, ddCt (qRT-PCR), IP at 50 μM against the reference inhibitor SB-525334 at 50 nM of -9.3.

For the next assay the target is unchanged. The source holds these as a separate data set.
Molecule LDAAYCFRN [peptide inhibitor 1.2 …] came in with a Jun N-terminal kinase (JNK1) mRNA, ddCt (qRT-PCR), IP at 50 μM against the reference inhibitor SB-525334 at 50 nM of -15.3.

Regarding AYCFRNVQD [peptide inhibitor 1.5 …], the Jun N-terminal kinase (JNK1) mRNA, ddCt (qRT-PCR), IP at 50 μM against the reference inhibitor SB-525334 at 50 nM was -0.1.

For DAAYCFRNV [peptide inhibitor 1.3 …], the Jun N-terminal kinase (JNK1) mRNA, ddCt (qRT-PCR), IP at 50 μM against the reference inhibitor SB-525334 at 50 nM was -13.4.
